Laboratory results from article doi:10.1101/2025.02.17.638590.

Biological target: free tubulin (bovine) (UniProt Q6B856)
Test: tubulin recruitment assay

UniProt Q6B856, sequence (Q6B856 whole entry, looked up): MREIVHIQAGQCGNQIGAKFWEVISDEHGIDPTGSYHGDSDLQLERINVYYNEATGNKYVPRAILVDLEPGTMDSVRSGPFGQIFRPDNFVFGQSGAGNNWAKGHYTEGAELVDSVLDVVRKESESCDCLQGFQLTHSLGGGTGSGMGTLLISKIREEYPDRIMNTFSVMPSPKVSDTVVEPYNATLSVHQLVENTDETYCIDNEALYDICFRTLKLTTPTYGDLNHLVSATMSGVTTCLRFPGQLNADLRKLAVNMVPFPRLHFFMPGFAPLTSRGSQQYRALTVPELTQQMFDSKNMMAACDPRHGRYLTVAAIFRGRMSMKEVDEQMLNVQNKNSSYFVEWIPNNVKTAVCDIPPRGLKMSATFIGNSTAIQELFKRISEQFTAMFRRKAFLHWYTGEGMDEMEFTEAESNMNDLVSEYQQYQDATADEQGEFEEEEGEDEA

Row | percent of stabilised microtubules with recruited free tubulin | percent of pre-polymerised microtubules with recruited free tubulin | Substance
1 | 9% |  | MAP6d1-Δ2-35 (from UniProt Q14BB9 1-191) (natural protein)
2 |  | 57% | MAP6d1 (from UniProt Q14BB9 1-191) (natural protein)
